Publication PMC10602909

System: ZNF506 ZF1-8 (C-terminal zinc finger array) (human)
Assay: ITC
Details: ITC (MicroCal PEAQ-ITC): 100 mM Tris pH 8, 500 mM NaCl, 25 uM ZnCl2, 10 mM reduced glutathione; protein 20 uM, DNA 200 nM as printed; temperature not stated

Substance: PBS-Pro 28 bp dsDNA probe
- Kd: 840 nM
